Columns and labels:
[1] = target: T1, PSGL-1 (P-Selectin Glycoprotein Ligand-1) on cells (human) (UniProt Q14242); assay: FACS, whole blood sample #1, granulocytes, 1 µg scFv
T1 sequence (looked up): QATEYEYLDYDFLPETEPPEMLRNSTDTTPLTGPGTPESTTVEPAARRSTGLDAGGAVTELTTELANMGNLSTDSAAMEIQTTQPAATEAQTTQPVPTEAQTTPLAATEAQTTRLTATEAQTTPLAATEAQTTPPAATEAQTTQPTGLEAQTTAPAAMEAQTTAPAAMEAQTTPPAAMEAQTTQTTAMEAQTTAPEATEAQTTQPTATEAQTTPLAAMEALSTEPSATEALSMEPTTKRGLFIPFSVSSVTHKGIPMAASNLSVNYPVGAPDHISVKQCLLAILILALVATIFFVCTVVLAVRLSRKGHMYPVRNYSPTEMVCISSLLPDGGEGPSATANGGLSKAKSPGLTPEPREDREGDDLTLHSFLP

[2] = target: T2, PSGL-1 (residues 42-58) derived peptide sulfated at 3rd tyrosine position; assay: ELISA on coated peptide
T2 sequence (peptide, sulfated at 3rd tyrosine position): QATEYEYLDYDFLPETE

[3] = target: T3, CCR5 (residues 1-18) derived peptide sulfated at 2nd tyrosine position; assay: ELISA on coated peptide
T3 sequence (peptide, sulfated at 2nd tyrosine position): MDYQVSSPIYDINYYTSE

[4] = target: T4, PSGL-1 (residues 42-58) derived peptide sulfated at 1st tyrosine position; assay: ELISA on coated peptide
T4 sequence (peptide, sulfated at 1st tyrosine position): QATEYEYLDYDFLPETE

[5] = target: T5, PSGL-1 (residues 42-58) derived peptide sulfated at 2nd tyrosine position; assay: ELISA on coated peptide
T5 sequence (peptide, sulfated at 2nd tyrosine position): QATEYEYLDYDFLPETE

[6] = target: T6, CCR5 (residues 1-18) derived peptide sulfated at 1st tyrosine position; assay: ELISA on coated peptide
T6 sequence (peptide, sulfated at 1st tyrosine position): MDYQVSSPIYDINYYTSE

[7] = target: T7, CCR5 (residues 1-18) derived peptide sulfated at 3rd tyrosine position; assay: ELISA on coated peptide
T7 sequence (peptide, sulfated at 3rd tyrosine position): MDYQVSSPIYDINYYTSE

[8] = target: T8, GPIb (residues 268-285) derived peptide sulfated at 3rd tyrosine position; assay: ELISA on coated peptide
T8 sequence (peptide, sulfated at 3rd tyrosine position): GDEGDTDLYDYYPEEDTE

[9] = target: T9, GPIb (residues 268-285) derived peptide sulfated at 1st tyrosine position; assay: ELISA on coated peptide
T9 sequence (peptide, sulfated at 1st tyrosine position): GDEGDTDLYDYYPEEDTE

[10] = target: GPIb on human platelets (human) (UniProt P07359); assay: FACS on platelets, PRP sample #1, 2 µg scFv; PRP sample #1, 2 µg scFv
[11] = target: T1, PSGL-1 (P-Selectin Glycoprotein Ligand-1) on cells (human); assay: FACS, whole blood sample #2, granulocytes, 1 µg scFv
[12] = target: T1, PSGL-1 (P-Selectin Glycoprotein Ligand-1) on cells (human); assay: FACS, whole blood sample #2, monocytes, 1 µg scFv
[13] = target: T1, PSGL-1 (P-Selectin Glycoprotein Ligand-1) on cells (human); assay: FACS, whole blood sample #1, lymphocytes, 0.5 µg scFv
[14] = target: T1, PSGL-1 (P-Selectin Glycoprotein Ligand-1) on cells (human); assay: FACS, whole blood sample #1, granulocytes, 0.5 µg scFv
[15] = target: T1, PSGL-1 (P-Selectin Glycoprotein Ligand-1) on cells (human); assay: FACS, whole blood sample #2, granulocytes, 0.1 µg scFv
[16] = target: T1, PSGL-1 (P-Selectin Glycoprotein Ligand-1) on cells (human); assay: FACS, whole blood sample #2, monocytes, 0.1 µg scFv
[17] = target: T1, PSGL-1 (P-Selectin Glycoprotein Ligand-1) on cells (human); assay: FACS, whole blood sample #1, monocytes, 1 µg scFv
[18] = target: T1, PSGL-1 (P-Selectin Glycoprotein Ligand-1) on cells (human); assay: FACS, whole blood sample #1, monocytes, 0.5 µg scFv
[19] = target: GPIb on human platelets (human) (UniProt P07359); assay: FACS on platelets, PRP sample #1, 1 µg scFv; PRP sample #1, 1 µg scFv
[20] = target: T1, PSGL-1 (P-Selectin Glycoprotein Ligand-1) on cells (human); assay: FACS, whole blood sample #2, lymphocytes, 0.5 µg scFv
[21] = target: GPIb on human platelets (human) (UniProt P07359); assay: FACS on platelets in PRP, 1 µg scFv; mean of PRP samples #1 and #2, 1 µg scFv
[22] = target: T1, PSGL-1 (P-Selectin Glycoprotein Ligand-1) on cells (human); assay: FACS, whole blood sample #1, monocytes, 0.1 µg scFv
[23] = target: T1, PSGL-1 (P-Selectin Glycoprotein Ligand-1) on cells (human); assay: FACS, whole blood sample #1, lymphocytes, 1 µg scFv
[24] = target: GPIb on human platelets (human) (UniProt P07359); assay: FACS on platelets, PRP sample #2, 2 µg scFv; PRP sample #2, 2 µg scFv
[25] = target: T1, PSGL-1 (P-Selectin Glycoprotein Ligand-1) on cells (human); assay: FACS on ML-2 cells in PBS, purified scFv
[26] = target: GPIb on guinea pig platelets (guinea pig); assay: cell-based or functional assay
[27] = target: T1, PSGL-1 (P-Selectin Glycoprotein Ligand-1) on cells (human); assay: FACS, whole blood sample #2, lymphocytes, 1 µg scFv
[28] = target: T1, PSGL-1 (P-Selectin Glycoprotein Ligand-1) on cells (human); assay: FACS, whole blood sample #1, granulocytes, 0.1 µg scFv
[29] = target: GPIb on human platelets (human) (UniProt P07359); assay: FACS on platelets, PRP sample #2, 1 µg scFv; PRP sample #2, 1 µg scFv
[30] = target: T1, PSGL-1 (P-Selectin Glycoprotein Ligand-1) on cells (human); assay: FACS, whole blood sample #2, lymphocytes, 0.1 µg scFv
[31] = target: T1, PSGL-1 (P-Selectin Glycoprotein Ligand-1) on cells (human); assay: FACS, whole blood sample #2, monocytes, 0.5 µg scFv
[32] = target: T1, PSGL-1 (P-Selectin Glycoprotein Ligand-1) on cells (human); assay: FACS, whole blood sample #1, lymphocytes, 0.1 µg scFv
[33] = target: T1, PSGL-1 (P-Selectin Glycoprotein Ligand-1) on cells (human); assay: FACS on ML-2 cells in 50% plasma, purified scFv
[34] = target: glycocalicin (UniProt P07359); assay: SPR (BIAcore 3000), glycocalicin immobilized on CM5 chip
[35] = target: T1, PSGL-1 (P-Selectin Glycoprotein Ligand-1) on cells (human); assay: FACS, whole blood sample #2, granulocytes, 0.5 µg scFv
[36] = target: T10, CCR5 (residues 1-18) derived peptide, non-sulfated; assay: ELISA on coated peptide
T10 sequence (peptide): MDYQVSSPIYDINYYTSE

[37] = target: T11, PSGL-1 (residues 42-58) derived peptide, non-sulfated; assay: ELISA on coated peptide
T11 sequence (peptide): QATEYEYLDYDFLPETE

[38] = target: T12, GPIb (residues 268-285) derived peptide, non-sulfated; assay: ELISA on coated peptide
T12 sequence (peptide): GDEGDTDLYDYYPEEDTE

[39] = target: GPIb on guinea pig platelets (guinea pig); assay: FACS on guinea pig platelets

Sequence of GPIb on human platelets (human) (P07359 17-652): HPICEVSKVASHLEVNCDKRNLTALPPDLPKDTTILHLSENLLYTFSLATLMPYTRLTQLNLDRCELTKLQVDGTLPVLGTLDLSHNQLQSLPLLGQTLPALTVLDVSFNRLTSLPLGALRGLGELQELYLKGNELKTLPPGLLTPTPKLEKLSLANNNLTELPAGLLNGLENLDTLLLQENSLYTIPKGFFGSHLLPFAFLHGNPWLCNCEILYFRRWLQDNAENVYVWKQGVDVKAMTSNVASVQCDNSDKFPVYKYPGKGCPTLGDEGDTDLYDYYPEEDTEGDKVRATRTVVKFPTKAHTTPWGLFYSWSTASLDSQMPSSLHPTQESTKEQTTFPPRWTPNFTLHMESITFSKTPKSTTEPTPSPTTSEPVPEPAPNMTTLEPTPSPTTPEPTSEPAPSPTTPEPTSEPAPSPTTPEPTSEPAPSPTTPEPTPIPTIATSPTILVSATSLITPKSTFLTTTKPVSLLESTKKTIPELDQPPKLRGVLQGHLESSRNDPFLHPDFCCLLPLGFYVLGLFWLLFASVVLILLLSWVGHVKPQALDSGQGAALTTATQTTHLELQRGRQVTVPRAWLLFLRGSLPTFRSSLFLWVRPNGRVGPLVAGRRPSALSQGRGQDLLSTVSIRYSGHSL
Sequence of glycocalicin (P07359 17-531 limits assumed): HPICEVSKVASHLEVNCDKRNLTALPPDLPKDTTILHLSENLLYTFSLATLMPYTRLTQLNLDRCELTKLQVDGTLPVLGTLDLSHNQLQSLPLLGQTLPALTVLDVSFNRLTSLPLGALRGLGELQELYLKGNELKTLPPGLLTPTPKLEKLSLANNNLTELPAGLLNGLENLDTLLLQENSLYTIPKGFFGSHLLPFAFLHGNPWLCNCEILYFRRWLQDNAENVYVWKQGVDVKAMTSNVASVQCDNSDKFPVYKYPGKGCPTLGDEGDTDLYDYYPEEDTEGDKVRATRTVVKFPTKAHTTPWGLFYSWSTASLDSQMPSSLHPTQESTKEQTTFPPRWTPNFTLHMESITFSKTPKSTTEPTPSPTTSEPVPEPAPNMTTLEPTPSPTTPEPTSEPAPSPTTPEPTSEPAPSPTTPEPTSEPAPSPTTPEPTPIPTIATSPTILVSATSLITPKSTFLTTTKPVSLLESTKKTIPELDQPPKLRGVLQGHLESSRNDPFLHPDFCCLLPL

B1: S15 scFv (scFv)
scFv: EVQLVESGGGVVRPGGSLRLSCAASGFTFDLNPKVKHMWVRQAPGKGLEWVSGINWNGGSTGYADSVKGRFTISRDNAKNSLYLQMNSLRAEDTAVYYCARLRRPSIWGQGTLVTVSRGGGGSGGGGSGGGGSSELTQDPAVSVALGQTVRITCQGDSLRSYYASWYQQKPGQAPVLVIYGKNNRPSGIPDRFSGSSSGNTASLTITGAQAEDEADYYCNSRDSSGNHVVFGGGTKLTVLGAAAEQKLISEEDLNGAA
Geo Mean [1]: 150
ELISA reading at 450 nm [2]: 0.6
ELISA reading at 450 nm [3]: 0.3
ELISA reading at 450 nm [4]: 0.02
ELISA reading at 450 nm [5]: 0.2
ELISA reading at 450 nm [6]: 0.12
ELISA reading at 450 nm [7]: 0.16
ELISA reading at 450 nm [8]: 0.3
ELISA reading at 450 nm [9]: 0.6
Geo Mean [10]: 120
Geo Mean [11]: 220
Geo Mean [12]: 340
Geo Mean [13]: 81
Geo Mean [14]: 100
Geo Mean [15]: 44
Geo Mean [16]: 69
Geo Mean [17]: 290
Geo Mean [18]: 192
Geo Mean [19]: 30
Geo Mean [20]: 78
average geo mean of both PRP samples [21]: 26
Geo Mean [22]: 56
Geo Mean [23]: 120
Geo Mean [24]: 68
fold binding compared to L32 and Y1 [25]: > 100 fold
inhibition of guinea pig platelet aggregation, IC50 [26]: 80 to 160 µg/mL
Geo Mean [27]: 112
Geo Mean [28]: 26
Geo Mean [29]: 23
Geo Mean [30]: 18
Geo Mean [31]: 248
Geo Mean [32]: 36
fold binding compared to L32 and Y1 [33]: > 10 fold
Kd [34]: 180 nM
koff [34]: 0.43 s⁻¹
Geo Mean [35]: 151

B2: S11 scFv (scFv, from a related filing)
scFv: EVQLVESGGGVVRPGGSLRLSCAASGFTFDLNPKVKHMWVRQAPGKGLEWVSGINWNGGSTGYADSVKGRFTISRDNAKNSLYLQMNSLRAEDTAVYYCARLRYPFFWGQGTLVTVSRGGGGSGGGGSGGGGSSELTQDPAVSVALGQTVRITCQGDSLRSYYASWYQQKPGQAPVLVIYGKNNRPSGIPDRFSGSSSGNTASLTITGAQAEDEADYYCNSRDSSGNHVVFGGGTKLTVLGAAAEQKLISEEDLNGAA
ELISA reading at 450 nm [2]: 0.7
ELISA reading at 450 nm [3]: 0.7
ELISA reading at 450 nm [4]: 0.16
ELISA reading at 450 nm [36]: 0.08
ELISA reading at 450 nm [5]: 0.12
ELISA reading at 450 nm [6]: 0.12
ELISA reading at 450 nm [37]: 0.01
ELISA reading at 450 nm [38]: 0.1
ELISA reading at 450 nm [7]: 0.11
ELISA reading at 450 nm [8]: 0.3
ELISA reading at 450 nm [9]: 0.6
fold binding capacity relative to Y1 [39]: 25 fold

B3: S1 scFv (scFv, from a related filing)
scFv: EVQLVESGGGVVRPGGSLRLSCAASGFTFDLNPKVKHMWVRQAPGKGLEWVSGINWNGGSTGYADSVKGRFTISRDNAKNSLYLQMNSLRAEDTAVYYCARLRPPFLWGQGTLVTVSRGGGGSGGGGSGGGGSSELTQDPAVSVALGQTVRITCQGDSLRSYYASWYQQKPGQAPVLVIYGKNNRPSGIPDRFSGSSSGNTASLTITGAQAEDEADYYCNSRDSSGNHVVFGGGTKLTVLGAAAEQKLISEEDLNGAA
ELISA reading at 450 nm [2]: 0.8
ELISA reading at 450 nm [3]: 0.3
ELISA reading at 450 nm [4]: 0.1
ELISA reading at 450 nm [36]: 0.06
ELISA reading at 450 nm [5]: 0.08
ELISA reading at 450 nm [6]: 0.07
ELISA reading at 450 nm [37]: 0.07
ELISA reading at 450 nm [38]: 0.07
ELISA reading at 450 nm [7]: 0.07
ELISA reading at 450 nm [8]: 0.15
ELISA reading at 450 nm [9]: 0.8
fold binding capacity relative to Y1 [39]: 25 fold
